Data published in PMC2734247, “The Chlamydia Type III Secretion System C-ring Engages a Chaperone-Effector Protein Complex” (PLoS Pathogens, 2009).

Columns and labels:
[1] = target: Cap1-6xHis (aa 1-298) (C. trachomatis serovar D); test: SEC; proteins eluted from Ni2+-NTA (complexes formed by co-expression in E. coli) on a 16/60 Sephacryl S-100 HR column; 10 mM Tris-HCl/50 mM phosphate buffer/150 mM NaCl pH 8.0; sizes by a low molecular weight calibration kit
[2] = target: the molecule itself; test: cross-linking; purified 6xHis-Mcsc treated with 0.25-1 mM DSP for 20 min at 4 C; SDS-PAGE with or without 50 mM DTT; immunoblot with Mcsc antibodies
[3] = target: T1, Ct618-6xHis (aa 1-189) (C. trachomatis serovar D, UniProt O84623 1-189); test: SEC; proteins eluted from Ni2+-NTA (complexes formed by co-expression in E. coli) on a 16/60 Sephacryl S-100 HR column; 10 mM Tris-HCl/50 mM phosphate buffer/150 mM NaCl pH 8.0; sizes by a low molecular weight calibration kit; details: both partners purified
T1 construct: Ct618 of C. trachomatis, amino-terminal domain, aa 1-189; printed as Ct618-6xHis; also called 6xHis-tagged Ct618; amino-terminal domain of Ct618; source: E. coli BL21 DE3 (bicistronic pET-24d with Mcsc), in lysate; purified (Ni2+-NTA agarose, gel filtration)
T1 sequence: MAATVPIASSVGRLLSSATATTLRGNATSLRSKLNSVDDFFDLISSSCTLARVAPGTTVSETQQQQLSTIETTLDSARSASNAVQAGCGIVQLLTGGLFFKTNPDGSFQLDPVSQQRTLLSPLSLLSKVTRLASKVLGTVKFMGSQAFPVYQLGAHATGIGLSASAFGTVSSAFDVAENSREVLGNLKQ

Molecule: Mcsc, untagged, co-expressed from a bicistronic vector (from UniProt O84262 1-163) (natural protein)
- stoichiometry N (Mcsc subunits per effector protein) [1]: 2

B1: 6xHis-Mcsc (natural protein)
chain: MTTWTLNHNNLTKFLTHAQLEPSLERESGLIYITVPAGEHELPLFFVIRNEGEVLQLVCYFPYQIQQNQRDTTARLLHLVNRDIDIPGFGMDEEQNIIFYRLVIPCLKGEINEDLLRVYIDTIKLICDSFFHAIGLISTGNMDLDELKKQAKLENNQSDQLEP
notes: Ct260 (Mcsc) of C. trachomatis, amplified from serovar D genomic DNA; printed as 6xHis-Mcsc, vector pET15b; also called hexahistidine-tagged Mcsc (Ct260); 6xHis-tagged Mcsc dimers; source: E. coli BL21 DE3 (pET15b-Mcsc), purified (Ni2+-NTA agarose, gel filtration)
- stoichiometry N [2]: 2

B2: Mcsc, untagged, co-expressed from a bicistronic vector (natural protein)
chain: MTTWTLNHNNLTKFLTHAQLEPSLERESGLIYITVPAGEHELPLFFVIRNEGEVLQLVCYFPYQIQQNQRDTTARLLHLVNRDIDIPGFGMDEEQNIIFYRLVIPCLKGEINEDLLRVYIDTIKLICDSFFHAIGLISTGNMDLDELKKQAKLENNQSDQLEP
notes: Ct260 (Mcsc) of C. trachomatis, amplified from serovar D genomic DNA; also called untagged Mcsc; Ct260; source: E. coli BL21 DE3 (bicistronic pET-24d), in lysate; co-purified with the 6xHis-tagged effector (Ni2+-NTA agarose, gel filtration)
- stoichiometry N [3]: 2 Mcsc subunits per effector protein
